Assay [1] has as its system β-catenin-dependent transactivation. Put plainly: LEF-1 consensus luciferase transactivation in SW480 cells (Example 2). The conditions noted are these: co-transfection, FIG. 19A. Type of assay: cell-based, human. The procedure:
(§1) Cell Culture and Transfections: Canine kidney epithelial cells MDCK, human fibrosarcoma HT1080, 293-T human embryonic kidney cells, Balb/C mouse 3T3 and human colon carcinoma SW480 cell lines were cultured in Dulbecco's modified Eagle's medium supplemented with 10% calf serum (Gibco, Grand Island, N.Y.) at 37° C. in the presence of 7% CO2. The human renal carcinoma cell line KTCTL60 was grown in RPMI medium and 10% calf serum. Cells were transiently transfected with the cDNA constructs described below, using Ca^2+-phosphate or lipofectamine (Gibco) and the expression of the transgene was assessed between 24 and 48 hours after transfection. In some experiments, the expression of the stably transfected NH2 terminus-deleted β-catenin (Δ57) was enhanced in HT1080 cells by overnight treatment with 2 mM sodium butyrate.
(§2) A plasmid encoding β-galactosidase (0.5 μg) was cotransfected to enable normalization for transfection efficiency. The relevant plasmid expressing catenin constructs (4.5 μg) was co-transfected with the reporter, or an empty expression vector was included. After 24-48 hours expression of the reporter (luciferase) and the control (β-galactosidase) genes were determined using enzyme assay systems from Promega (Madison, Wis.).

Assay [2] relates to SW480 cells. Put plainly: Double immunofluorescence of β-catenin in SW480 cells (Example 2). It counts as cell-based, human. The conditions noted are these: transfected SW480 cells, FIG. 19B. From the text:
(§3) Immunofluorescence Microscopy: Cells cultured on glass coverslips were fixed with 3.7% paraformaldehyde in PBS and permeabilized with 0.5% Triton X-100. Monoclonal antibodies against human plakoglobin (11E4), β-catenin (5H10), the COOH terminus of β-catenin (6F9) and α-catenin (1G5) were described and kindly provided by Drs. M. Wheelock and K. Johnson (Univ. Toledo, Ohio). The secondary antibody was FITC- or Cy3-labeled goat anti mouse IgG (Jackson ImmunoResearch Laboratories, West Grove, Pa.). Polyclonal antiserum against β-catenin, monoclonal antibody against pan cadherin (CH-19), vinculin ([…]) and α-actinin (BM75.2) were from Sigma (Holon, Israel). Monoclonal antibodies against the splicing factor SC35 and the HA epitope were kindly provided by Dr. D. Helfman (CSH Laboratory, N.Y.). Polyclonal rabbit antibody against the VSV-G epitope was a gift from Dr. JC Perriard (ETH, Zurich, Switzerland). FITC-labeled goat anti-rabbit IgG antibody was from Cappel/ICN. Monoclonal antibody against LEF-1 was kindly provided by Dr. R. Grosschedl (Univ. Calif. San Francisco, Calif.). […] Images of the fluorescent cells were recorded with a cooled, scientific grade CCD camera (Photometrics, Tucson, Ariz.). Integrated fluorescent intensities in transfected and nontransfected cells were determined, after the background was subtracted.

The subject of assay [3] is LEF-1-driven transcription. In words: LEF-1 consensus (TOPFLASH) transactivation in 293 cells. It counts as cell-based, human. The conditions noted are these: FIG. 18B. The method, then: as §1, §2
In assay [4] the test system is endogenous β-catenin. In words: Double immunofluorescence of endogenous β-catenin in transfected cells. Type of assay: cell-based. The conditions noted are these: FIG. 18C.
From the text: as §3

B1: α-catenin: HA-tagged chicken α-catenin in the pCGN vector (protein)
chain: TAVTAGNVNFRWDPKSLEIRTLAVERLLEPLVTQVTTLVNTSNKGPSNKKRGRSKKAHVLAASVEQATENFLDKGDKIAKESQFLKEELVAAVEDVRKQGDLMKSASGEFADDPCSSVKRGNMVRAARALLSAVTRLLILADMADVYKLLVQLKVVEEGILKLRNAGTEQDLGIQYKALKPEVDKLNIMAAKRQQELKDVGHRDQMAAARGILQKNVPILYTASQACLQHFDVAAYKANRDLIYKQLQQAVTGISNAAQATASDDAAQQQGGGGELAYALNNFDKQIIVDPSTFSEQRFRPSLEERLESIISGAALMADSSCTRDDRRERIVAECNAVRQALQDLLSEYMGNAGRKERSDALNSAIDKMTKKTRDLRRQLRKAVMDHVSDSFLETNVPLLVLIEAARNGNEKEVKEYTQVFREHANKLIEVANLACSISNNEEGVKLVRMSASQLEALCPQVINAALALAAKPQSKLAQENMELFKEQWEKQVRVLTDAVDDITSIDDFLAVSENHILEDVNKCVIALQEKDVDGLDRTAGAIRGRAARVIHVVTSEMDNYEPGVYTEKVLEATKLLSNTVMPRFTEQVEAAVEALSSDPAQPMDENEFIDRSRLVYDGIRDIRKAVLMIRTPEELDDSDFETEDFDVRSKTSIQTEDDQLIAGQSARAIMAQLPQEQKAKIAEAVASFQEEKSKLDAEVSKWDDSGNDIIVLAKQMCMIMMEMTDFTRGKGPLKNTSDVISAAKKIAEAGSRMDKLGRTIADHCPDSASKQDLLAYLQRIALYCHQLNICSKVKAEVQNLGGELVVSGVDSAMSLIQAAKNLMNAVVQTVKASYVASTKYQKSQGMASLNLPAVSWKMKAPEKKPLVKREKQDETQTKIKRASQKKHVNPVQALSEFKAMESI
modifications: left off: small tags and cut ends
notes: HA-tagged chicken α-catenin in the pCGN vector
Regarding B1, the “effect on constitutive LEF-1 driven transcription” value in assay [1] is recorded as “effectively blocked”. Also, the “effect on nuclear localization of β-catenin” value in assay [2] is given as “sequestered to the cytoplasm”.

B2: α-catenin Δβ: HA-tagged mutant α-catenin lacking the β-catenin binding site (amino acids 118-166) (protein)
chain: MTAVTAGNVNFRWDPKSLEIRTLAVERLLEPLVTQVTTLVNTSNKGPSNKKRGRSKKAHVLAASVEQATENFLDKGDKIAKESQFLKEELVAAVEDVRKQGDLMKSASGEFADDPCSAGTEQDLGIQYKALKPEVDKLNIMAAKRQQELKDVGHRDQMAAARGILQKNVPILYTASQACLQHFDVAAYKANRDLIYKQLQQAVTGISNAAQATASDDAAQQQGGGGELAYALNNFDKQIIVDPSTFSEQRFRPSLEERLESIISGAALMADSSCTRDDRRERIVAECNAVRQALQDLLSEYMGNAGRKERSDALNSAIDKMTKKTRDLRRQLRKAVMDHVSDSFLETNVPLLVLIEAARNGNEKEVKEYTQVFREHANKLIEVANLACSISNNEEGVKLVRMSASQLEALCPQVINAALALAAKPQSKLAQENMELFKEQWEKQVRVLTDAVDDITSIDDFLAVSENHILEDVNKCVIALQEKDVDGLDRTAGAIRGRAARVIHVVTSEMDNYEPGVYTEKVLEATKLLSNTVMPRFTEQVEAAVEALSSDPAQPMDENEFIDRSRLVYDGIRDIRKAVLMIRTPEELDDSDFETEDFDVRSKTSIQTEDDQLIAGQSARAIMAQLPQEQKAKIAEAVASFQEEKSKLDAEVSKWDDSGNDIIVLAKQMCMIMMEMTDFTRGKGPLKNTSDVISAAKKIAEAGSRMDKLGRTIADHCPDSASKQDLLAYLQRIALYCHQLNICSKVKAEVQNLGGELVVSGVDSAMSLIQAAKNLMNAVVQTVKASYVASTKYQKSQGMASLNLPAVSWKMKAPEKKPLVKREKQDETQTKIKRASQKKHVNPVQALSEFKAMESI
modifications: left off: small tags and cut ends
B2: the “effect on constitutive LEF-1 driven transcription” value in assay [1] is listed as “abolished the transactivation inhibition capacity”. Besides, the “effect on nuclear localization of β-catenin” value in assay [2] was “did not show this activity”.

B3: plakoglobin: HA-tagged human plakoglobin (protein, UniProt P14923 1-745, looked up)
Junction plakoglobin: MEVMNLMEQPIKVTEWQQTYTYDSGIHSGANTCVPSVSSKGIMEEDEACGRQYTLKKTTTYTQGVPPSQGDLEYQMSTTARAKRVREAMCPGVSGEDSSLLLATQVEGQATNLQRLAEPSQLLKSAIVHLINYQDDAELATRALPELTKLLNDEDPVVVTKAAMIVNQLSKKEASRRALMGSPQLVAAVVRTMQNTSDLDTARCTTSILHNLSHHREGLLAIFKSGGIPALVRMLSSPVESVLFYAITTLHNLLLYQEGAKMAVRLADGLQKMVPLLNKNNPKFLAITTDCLQLLAYGNQESKLIILANGGPQALVQIMRNYSYEKLLWTTSRVLKVLSVCPSNKPAIVEAGGMQALGKHLTSNSPRLVQNCLWTLRNLSDVATKQEGLESVLKILVNQLSVDDVNVLTCATGTLSNLTCNNSKNKTLVTQNSGVEALIHAILRAGDKDDITEPAVCALRHLTSRHPEAEMAQNSVRLNYGIPAIVKLLNQPNQWPLVKATIGLIRNLALCPANHAPLQEAAVIPRLVQLLVKAHQDAQRHVAAGTQQPYTDGVRMEEIVEGCTGALHILARDPMNRMEIFRLNTIPLFVQLLYSSVENIQRVAAGVLCELAQDKEAADAIDAEGASAPLMELLHSRNEGTATYAAAVLFRISEDKNPDYRKRVSVELTNSLFKHDPAAWEAAQSMIPINEPYGDDMDATYRPMYSSDVPLDPLEMHMDMDGDYPIDTYSDGLRPPYPTADHMLA
modifications: HA tag
For the molecule B3, the “LEF-1-driven transcription, fold lower extent than β-catenin” value in assay [3] is 3 to 4 fold. Moreover, in assay [4], the “nuclear translocation of endogenous β-catenin” value was “resulted in nuclear translocation of endogenous β-catenin”.

For the origin of these results see patent publication US20020045591A1, “Methods and therapeutic compositions for treating cancer” (priority 1998, published 2002).
